Reference: the supplement of paper PMC9170038

Test system: MS2 coat protein
Assay: apparent KD of MS2 coat protein; designed switch direction (-1 OFF switch, 1 ON switch): -1; higher = weaker reporter binding
How it was run: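 Designed RNA switches were transcribed on Illumina chips by stalled E. coli RNA polymerase and titrated with SNAP-549-labelled MS2 coat protein from 0.7 or 1.5 nM, doubling to 3 µM. Step length ran from 0.8–1.5 h at the lowest concentration to 10–20 min at the highest. The apparent KD is the median over clusters for each design, from curve-fitted normalised cluster fluorescence.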

[1] = Eterna round: R95, input ligand: FMN 200 uM
[2] = Eterna round: R95, input ligand: microRNA oligo, concentration not stated
[3] = Eterna round: R95, input ligand: none
[4] = input ligand: microRNA oligo, concentration not stated

Row | Sequence | apparent KD of MS2 coat protein (input ligand: FMN 200 uM) | apparent KD of MS2 coat protein (input ligand: none) | apparent KD of MS2 coat protein [1] | apparent KD of MS2 coat protein [2] | apparent KD of MS2 coat protein [3] | apparent KD of MS2 coat protein [4]
1 | GCGGUACAUGAGGAUCACCCAUGUCAGGAUAUCCGCUGUAACUUAAUAAAUAAGCGGUGGAGAAGGGACUUCGC [-18.24, -17.54 kcal, 30% A] (Eterna round: R97, puzzle: Exclusion 1) | 34.2 nM | 27.6 nM | – | – | – | –
2 | AAGUACCGUCACGAUAGUGAUGGUACAACAAGCAGUGAAACAUGAGGAUCACCCAUGUCCUCGAUUGCUCGUCUUAU [Sensor 3 - 80] (puzzle: Sensor v3, turn-off variant 2) | – | – | 67.7 nM | 142 nM | 66.3 nM | –
3 | CCUUAGUAAGGAUAUCAGCUUAUAGAGUUGGUAAUGAGAGCUGAGAAGGUACAUGAGGAUCACCCAUGUUAGUU [JL Zatite mod 4] (puzzle: Exclusion 4) | – | – | – | 20.3 nM | – | –
4 | CUUGUGUGAGGAUAUGAAUUGCCUGGACAUACAGGCUCCUGUCAGAAGGCACAUGAGGAUCACCCAUGUGGGCA [Andiriso] (Eterna round: R97, puzzle: Exclusion 4) | 98.1 nM | 411 nM | – | – | – | –
5 | GGUGGACAUGAGGAUCACCCAUGUGAGGAUAUCGGCCGGUUCGUGGUGGCUGGCUUCUCGAGAAGGCGCAUAGU [Exclusion 1 V74] (puzzle: Exclusion 1) | – | – | – | 46.4 nM | – | –
6 | UUCGUGCAGCUUUGCUGUACGAGUACAUGAGGAUCACCCAUGUAGGAUAUGGUACGCUUUGCGUGCCAGAAGGACGUGCGUUAG [salish99_ExNG3_r04_002] (Eterna round: R96, puzzle: Exclusion NG 3) | 73.4 nM | 42.1 nM | – | – | – | 34.1 nM
7 | GGAUCACAUGUCAGGAUAUGCAGGUCCUUGGAUCUGCAGAAGGGACAUGAGGAUCACCCAUGUCAUGAAGAUCC [Mat - Exclusion 4 - Eli Mod - D51] (Eterna round: R97, puzzle: Brourd's mod of Exclusion 4) | 945 nM | 145 nM | – | – | – | –
8 | AAGGGUGCCUUUAGAACGACAUGAGGAUCACCCAUGUAGACUGAGGAUAUCUACUCCUAAGGACCGGAGAAGGCAGUGUAAUGC [Ex NG3 #63] (Eterna round: R96, puzzle: Exclusion NG 3) | 72.1 nM | 58.9 nM | – | – | – | 41.4 nM
9 | UCGAUGUGAGGAUAUAUAUGCAGUAGUCCUUAUGUUUUAUAACUUGAGGAUCACCCAAGUAGAAGGCGCGACGU [JR_Ex2_Sub060] (Eterna round: R97, puzzle: Exclusion 2) | 49.2 nM | 39.5 nM | – | – | – | –
10 | UGUACUAACACGGAAGUGUUAGUACUAUAAGCUUGUGUUACAUGAGGAUCACCCAUGUCCUCAUAAGCUCGUCUUAA [Mat - Sensor v3 - Turn-off var 2 - D73] (puzzle: Sensor v3, turn-off variant 2) | – | – | 43.3 nM | 198 nM | 41 nM | –
11 | UGGUGGAAGCAGGAUAUGCUUGUUUUAUUGAUUGCAGAAGGGCUAACAUGAGGAUCACCCAUGUAAGAGGUGUU [JR_E6_Sub055] (puzzle: Exclusion 6) | – | – | – | 303 nM | – | –
12 | UGCAGACGAGGAUAUGAUUAAUAAUACAUGAGGAUCACCCAUGUAAUACUGAUCUAUGGAUCAGAAGGCGUCUGCA [E5/6-A1] (Eterna round: R97, puzzle: Exclusion 5) | 11.4 nM | 12.9 nM | – | – | – | –
13 | GCCGAUUAAGUGAGGAUAUACCUAUGGAAACAUAGGUAGAAGGCACAUGAGGAUCACCCAUGUUCCUAUACGGC [Fiskers BMX 4 - 5] (puzzle: Brourd's mod of Exclusion 4) | – | – | 36.4 nM | 12.3 nM | 11 nM | –
14 | AACCUGAGGCUUUGCUUUAGGUAUACAUGAGGAUCACCCAUGUAGGAUAUGGUAGGCUUUGCUUACCAGAAGGACAUGUUAAUU [JL ENG3 1.10] (Eterna round: R96, puzzle: Exclusion NG 3) | 136 nM | 44.2 nM | – | – | – | 41.7 nM
15 | CUUAAUUGUGACAUGGGUGACAUGAGGAUCACCCAUGUCACAAGCUUUUUGUUCGUCUUAUAAUUAACCCAUGUCAC [Stov1/13-B3] (Eterna round: R97, puzzle: Sensor, turn-off variant 1) | 44.9 nM | 52.7 nM | – | – | – | –
16 | AAUAAUCGAGGAUAUACUAAAAUAUGAAUAAAAUAAAUAAAACAUGAGGAUCACCCAUGUAGAAGGCGAAAUAA [JMF's Not so obvious solution 1] (puzzle: Exclusion 2) | – | – | 20.8 nM | 24.1 nM | 29.5 nM | –
17 | CUGUUUUCCGCAGGAUAUGCUCCUCCAUUAUUAGCAGAAGGGCGUUGAACAUGAGGAUCACCCAUGUAUGUAAUUGAUUAUUGC [JR_ExcNG1_Sub071] (Eterna round: R96, puzzle: Exclusion NG 1) | 54.3 nM | 36.3 nM | – | – | – | 26.3 nM
18 | AGUACUAACACGAAAGUGUUAGUACAAUAAGCUUGUGAAACAUGAGGAUCACCCAUGUCCUCAUAAGCUCGUCUUAA [salish99_TOv2_r3_002] (puzzle: Sensor v3, turn-off variant 2) | – | – | 12.9 nM | 379 nM | 10.8 nM | –
19 | AGAUGACAUGAGGAUCACCCAUGUUAGGAUAUUUAAGCCUGUACGCGCGUACUAGACGAGAGAAGGGACAUGGC [Eternabot (Original) Solution 39] (Eterna round: R97, puzzle: Exclusion 1) | 33.9 nM | 30.7 nM | – | – | – | –
20 | UCGCUCCGUGUAGGAUAUCGUUGUAUGAUGCGGCGAGAAGGACAUGAGGAUCACCCAUGUAUGUUAUUAUCACGCGUGGCGCAA [Design 65] (Eterna round: R96, puzzle: Exclusion NG 1) | 18.5 nM | 20.6 nM | – | – | – | 15.3 nM
21 | CAGUACUGAGGAUAUACAUGAGGAUCACCCAUGUGUUCCAGCUAGGAAUCUAGCAAAAGUAGAAGGCAGUACUG [salish99_ex3_r3_094x] (puzzle: Exclusion 3) | – | – | – | 25.3 nM | – | –
22 | AGCGUGUUAGGAUAUACACGACACUGGGUAGCGGGUGGAGGGUAGAAGGGACAUGAGGAUCACCCAUGUUCGGG [Ortere] (Eterna round: R97, puzzle: Exclusion 4) | 28.5 nM | 35 nM | – | – | – | –
23 | AUUUUGUCAGGAUAUUAGUAGUAAAUAAAUAAAAUUAUUACUGAGAAGGGACAUGAGGAUCACCCAUGUGUCUU [Salish 062 v9] (Eterna round: R97, puzzle: Exclusion 4) | 39.5 nM | 18.3 nM | – | – | – | –
24 | CCGGAAAUACAGGAUAUAGGAGUCGAUAGACUCCUAGAAGGGUAUACAUGAGGAUCACCCAUGUGUCCUACCGG [Fiskers Ex 6 - 70] (puzzle: Exclusion 6) | – | – | – | 22.8 nM | – | –
25 | CUUUUGUGAGGAUAUUCAUAGUAGGGUCAUGGCAUUAUUAUGAAGAAGGCACAUGAGGAUCACCCAUGUACCUU [EX4 #49] (Eterna round: R97, puzzle: Exclusion 4) | 32.8 nM | 21.5 nM | – | – | – | –
26 | GCUUGUGUUGAGGAUAUGCGCCGGCUCGCUGGCGCAGAAGGCGGCACAUGAGGAUCACCCAUGUCAGUUCGCGU [salish99_ex6_r004_010] (Eterna round: R97, puzzle: Exclusion 6) | 428 nM | 38 nM | – | – | – | –
